Legend:
[1] = Maleate model of AKI (FeS, SnPP, FeS+SnPP); type: in vivo, mice; settings: IV 1 mg FeS and/or 1 μmole SnPP 18 hrs before IP Na maleate 800 mg/Kg; 18 hrs later
Description: Effects of Fe sucrose (FeS)/tin protoporphyrin (SnPP) on AKI severity. Maleate model of AKI. When injected into rodents, maleate undergoes relatively selective proximal tubule cell uptake via organic anion transporters. Once intracellular accumulation occurs, maleate is a preferred substrate for succinyl-CoA:3-oxoacid CoA transferase. […] Ample levels of CoA are essential for fatty acid “activation”, allowing for their subsequent metabolism through the Krebs cycle, yielding ATP. In the absence of this process, proximal tubule ATP depletion and cell injury result. Additionally, maleate conjugates the sulfhydryl group of glutathione (GSH), culminating in GSH depletion and potential oxidant tubular stress.
The following experiment tested whether FeS, SnPP or combined FeS+SnPP can mitigate this form of acute kidney injury (AKI). Twenty seven mice were subjected to 200 μL IV tail injections of one of the following: 1) vehicle (phosphate buffered saline, PBS; n, 10); 2) 1 mg FeS (American Regent (Shirley, N.Y.; n, 3); 3) 1 μmole SnPP (Frontier Scientific, Logan, Utah; n 7), or FeS+SnPP, n, 7). Eighteen hrs later, all mice received an IP injection of Na maleate (800 mg/Kg; in 500 ul of PBS). […] The severity of kidney injury was assessed by determining plasma blood urea nitrogen (BUN) and plasma creatinine (PCr) concentrations.

[2] = system: heme oxygenase 1 (HO-1); test: Renal cortical induction of HO-1 by FeS, SnPP and B12 (ELISA, RT-PCR); type: in vivo, mice
Method: Effects of FeS, SnPP, and B12 on renal cortical induction of heme oxygenase 1 (HO-1). The following experiments assessed the effects of FeS, SnPP, and B12 on the possible induction of the cytoprotective protein HO-1. To this end, mice were injected with each of these agents, as noted above. Either 4 or 18 hrs later, they were anesthetized and the kidneys were removed through a midline abdominal incision. The renal cortices were dissected on ice and then extracted for protein and mRNA. The samples were then assayed for HO-1 protein by ELISA, and HO-1 mRNA by RT-PCR, factored by GAPDH levels. Five normal mice provided control values.

[3] = system: HO-1; test: Renal cortical HO-1 mRNA (RT-PCR) and protein (ELISA) after N-Mgb, SnPP or both; type: in vivo, mice
Method: (§1) Thirty-two mice were divided into 4 equal groups: (1) control mice; (2) mice treated with 1 mg of N-Mgb injection (as a bolus through the tail vein); (3) mice treated with […] of SnPP (via tail vein); and (4) mice treated with combined N-Mgb 1 SnPP. After either 4 hours (n=16) or 18 hours (n=16), the mice were deeply anesthetized with pentobarbital (50 mg/kg), the abdomen was opened through a midline abdominal incision, and the kidneys were removed. To determine potential effects on extrarenal organs, a liver lobe and the heart were also removed. The tissues were iced and then extracted for protein and RNA (RNeasy Plus Mini; Qiagen, Valencia, Calif.) and subjected to enzyme linked immunosorbent assay (ELISA) and reverse transcriptase polymerase chain reaction (RT-PCR) for HO-1, haptoglobin, and IL-10 protein and messenger RNAs (mRNAs). Zager et al. J Am Soc Nephrol 2014;25:998-1012; Zager et al. Am J Physiol 2012;303:F139-48. As an assessment of renal function, control mice and the 18 hour after N-Mgb+SnPP—treated mice had blood urea nitrogen (BUN) and plasma creatinine levels measured. Additionally, transverse 10% formalin fixed kidney sections ([…]) were cut and stained with hematoxylin and eosin (H&E) and periodic acid Schiff (PAS) to further assess potential injury.

[4] = Glycerol model of rhabdomyolysis-induced AKI; type: in vivo, mice; settings: IV pretreatment 18 hours before glycerol; 18 hours after glycerol
Method: Assessments of cytoresistance. Glycerol model of rhabdomyolysis-induced AKI. Twenty mice were divided into 4 equal groups (controls, mice treated with N-Mgb, SnPP, and mice treated with N-Mgb+SnPP tail vein injections) as described previously. 18 hours later, the mice were briefly anesthetized with isoflurane and immediately injected with 9 mL/kg of 50% glycerol, administered in equally divided doses into each hind limb. At 18 hours after glycerol injection, the mice were anesthetized with pentobarbital, the abdomen was opened, a blood sample for BUN and creatinine assessments was obtained from the vena cava, and the kidneys were resected. The control post-glycerol group and the N-Mgb+SnPP—pretreated glycerol group had kidney sections stained with H&E.
Calculations and statistics. All values are given as the mean […] standard error of the mean. Statistical comparisons were made by unpaired Student's t test. If multiple comparisons were made, the Bonferroni correction was applied. The severity of renal histologic injury in the glycerol AKI model was graded on a […] (least to most severe tubular necrosis and cast formation observed). The histologic results were compared by Wlcoxon rank sum test. Statistical significance was taken as a P value of <0.05.

[5] = system: HO-1; test: Liver HO-1 mRNA and protein after N-Mgb, SnPP or both; type: in vivo, mice
Method: as §1

[6] = system: IL-10; test: Cardiac IL-10 mRNA and protein after N-Mgb, SnPP or both; type: in vivo, mice
Method: as §1

[7] = system: HO-1; test: Cardiac HO-1 mRNA and protein after N-Mgb, SnPP or both; type: in vivo, mice
Method: as §1

[8] = system: IL-10; test: Renal cortical IL-10 mRNA and protein after N-Mgb, SnPP or both; type: in vivo, mice
Method: as §1

[9] = Serum creatinine after 2 hr subcutaneous infusion of N-myoglobin (constant SnPP); type: in vivo, mice; settings: 2 hr subcutaneous infusion 1, 3, 6, 12, or 25 mg/Kg, SnPP constant 1 μmole; 18 hrs later
Method: Mice were subjected to a 2 hr subcutaneous infusion of 1, 3, 6, 12, or 25 mg/Kg of nitrited myoglobin (holding SnPP at a constant dose of 1 μmole). Eighteen hrs later, potential renal injury was assessed by measuring serum creatinine concentrations.
An obvious concern by applying this prophylactic strategy to patients is potential renal and/or extrarenal toxicities. […] Furthermore, it was previously documented in a cell culture system that nitrite addition markedly reduces myoglobin's cytotoxic effects by 75% (unpublished data, 2014). To assess the potential in vivo margin of safety for N-Mgb+SnPP (see Supplemental FIGs.), the maximal amount of N-Mgb that could be given to mice before nephrotoxicity was observed was tested. Up to 25 times the employed N-Mgb dose (with a constant SnPP dose) could be administered (over 2 hours) without induction of nephrotoxicity (normal BUN and creatinine, 18 hours later).

[10] = system: HK-2 cells; test: HK-2 cell injury by MTT assay; type: cell-based; settings: equimolar Na nitrite added to 10 mg/ml myoglobin, 18 hr incubation
Method: HK-2 cells (a proximal tubule cell line derived from normal human kidney) were incubated in keratinocyte serum free medium either under normal (control) conditions or in the presence of 10 mg/mL horse skeletal muscle myoglobin or nitrited myoglobin (produced by equimolar Na nitrite addition to 10 mg/ml myoglobin). After 18 hr incubations, the severity of cell injury (% cell death) was assessed by MTT assay. Myoglobin induced 40% cell death (40% decrease in MTT cell uptake), compared to control incubated cells. Nitrite binding to myoglobin reduced cell death by 75%. Thus, nitrite binding is able to reduce myoglobin's cytotoxic effects.

[11] = system: Haptoglobin; test: Renal cortical haptoglobin mRNA and protein after N-Mgb, SnPP or both; type: in vivo, mice
Method: as §1

[12] = system: Haptoglobin; test: Cardiac haptoglobin mRNA and protein after N-Mgb, SnPP or both; type: in vivo, mice
Method: as §1

[13] = system: IL-10; test: Liver IL-10 mRNA and protein after N-Mgb, SnPP or both; type: in vivo, mice
Method: as §1

[14] = system: Haptoglobin; test: Liver haptoglobin mRNA and protein after N-Mgb, SnPP or both; type: in vivo, mice
Method: as §1

[15] = renal cortex, 4 h after Rx treatment

## Fe sucrose [FeS]
[1]
  reductions in BUN/PCr concentrations, maleate-induced AKI: Neither SnPP alone nor FeS alone significantly altered the severity of renal injury
[2]; 4 hr post IV injection
  renal cortical HO-1 protein levels: marked HO-1 protein increases
[2]; 18 hr time point
  renal cortical HO-1 protein levels: remained elevated at the 18 hr time point, particularly in the case of FeS administration
[2]; 18 hr time point, listed as Fe sucrose
  renal cortical HO-1 protein levels: persists for 18 hrs

## cyanocobalamin [vitamin B12]
[2]; 4 hr post IV injection
  renal cortical HO-1 protein levels: marked HO-1 protein increases
[2]; 18 hr time point
  renal cortical HO-1 protein levels: persists for 18 hrs

B1: N-Mgb: horse skeletal muscle myoglobin converted into a nitrited form by equimolar Na nitrite (protein, UniProt P68082 2-154, looked up)
Myoglobin: GLSDGEWQQVLNVWGKVEADIAGHGQEVLIRLFTGHPETLEKFDKFKHLKTEAEMKASEDLKKHGTVVLTALGGILKKKGHHEAELKPLAQSHATKHKIPIKYLEFISDAIIHVLHSKHPGDFGADAQGAMTKALELFRNDIAAKYKELGFQG
modifications: nitrited with sodium nitrite
[3]; 4 hours after IV injection, vs controls
  increase in renal HO-1 mRNA: only modest increases
[3]; 18 h after Rx treatment
  Kidney mRNA cortex HO-1: 0.58 ± 0.18
  Kidney protein HO-1: 30 ± 6
[3]; 18 hours post-treatment, vs control values
  increase in renal HO-1 protein: only relatively small HO-1 protein increases
[3]; [15]
  Kidney HO-1 protein: 36.1 ± 2.9
  Kidney mRNA HO-1: 3.38 ± 0.38
[4]
  protection against glycerol-induced AKI (BUN/creatinine levels): modest protection
[5]; 4 h after Rx treatment
  Liver mRNA HO-1: 1.83 ± 0.33
  Liver protein HO-1 protein: 17 ± 2
[5]; 18 h after Rx treatment
  Liver mRNA HO-1: 0.82 ± 0.07
  Liver protein HO-1 protein: 14.9 ± 0.3
[6]; 4 h after Rx treatment
  Cardiac mRNA IL-10: 0.86 ± 0.11
  Cardiac protein IL-10: 21 ± 12
[6]; 18 h after Rx treatment
  Cardiac mRNA IL-10: 0.67 ± 0.10
  Cardiac protein IL-10: 14.5 ± 10^
[7]; 4 h after Rx treatment
  Cardiac Protein HO-1: 1.64 ± 0.19
  Cardiac mRNA HO-1: 0.09 ± 0.01
[7]; 18 h after Rx treatment
  Cardiac mRNA HO-1: 0.08 ± 0.01
[8]; 4 hours after injection
  increase in renal IL-10 mRNA: either minimal or no impact
[8]; 18 h after Rx treatment
  Kidney mRNA cortex IL-10: 0.43 ± 0.10
  Kidney protein IL-10: 292 ± 54
[8]; 18 hours after injection
  increase in renal IL-10 protein: absence of IL-10 protein increases
[8]; [15]
  Kidney IL-10 (protein): 265 ± 54
  Kidney mRNA IL-10: 1.45 ± 0.6
[9]
  serum creatinine concentrations (potential renal injury): No significant increase
[10]
  reduction of myoglobin-induced cell death by nitrite binding: 75%
[11]; 18 h after Rx treatment
  Kidney mRNA cortex Haptoglobin: 0.24 ± 0.04
  Kidney protein Haptoglobin: 183.8 ± 20.4
[11]; 18 hours after injections
  increase in renal cortical haptoglobin protein levels: comparably increased
[11]; [15]
  Kidney Haptoglobin (protein): 17.6 ± 1^
  Kidney mRNA Haptoglobin: 1.94 ± 0.31
[12]; 4 h after Rx treatment
  Cardiac mRNA Haptoglobin: 0.75 ± 0.10
  Cardiac protein Haptoglobin: 40.4 ± 8.6
[12]; 18 h after Rx treatment
  Cardiac mRNA Haptoglobin: 0.53 ± 0.21
  Cardiac protein Haptoglobin: 249.6 ± 15.0
[13]; 4 h after Rx treatment
  Liver mRNA IL-10: 0.67 ± 0.46
  Liver protein IL-10: 286 ± 32
[13]; 18 h after Rx treatment
  Liver mRNA IL-10: 0.06 ± 0.02
  Liver protein IL-10: 5988 ± 549
[14]; 4 h after Rx treatment
  Liver mRNA Haptoglobin: 0.98 ± 0.1
  Liver protein Haptoglobin: 359.5 ± 39.6
[14]; 18 h after Rx treatment
  Liver mRNA Haptoglobin: 0.91 ± 0.07
  Liver protein Haptoglobin: 358.8 ± 32.8

Reference: US9844563B2, “Compositions, kits, and methods to induce acquired cytoresistance using stress protein inducers” (FRED HUTCHINSON CANCER RESEARCH CENTER, priority 2014, dated 2017)
